Changes are numbered by the printed parent chain. One block for each binder: values may come before it.
Columns and labels:
[1] = biological target: T1, human PD-L1 expressed on cell surface (human, UniProt Q9NZQ7 19-290); test: cell-based or functional assay
[2] = biological target: T1, human PD-L1 expressed on cell surface; test: cell-based or functional assay; remark: listed apart in the source
[3] = biological target: T2, BH-H2 (Sino Biological, Cat #11559-H08H) (UniProt O75144 19-258); test: ELISA
T2 sequence (looked up): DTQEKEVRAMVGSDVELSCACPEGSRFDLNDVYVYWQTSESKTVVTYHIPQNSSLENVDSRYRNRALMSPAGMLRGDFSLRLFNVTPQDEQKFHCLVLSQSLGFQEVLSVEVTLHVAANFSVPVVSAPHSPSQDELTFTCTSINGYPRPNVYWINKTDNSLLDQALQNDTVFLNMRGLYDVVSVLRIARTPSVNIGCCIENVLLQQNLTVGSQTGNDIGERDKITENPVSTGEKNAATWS

[4] = biological target: T3, human PD-L1-His (Sino Biological, Cat #10084-H08H) (human, UniProt Q9NZQ7 19-238); test: BLI (Gator), antibody on HFC probe, human PD-L1-His in solution
T3 construct: Bought protein; also called human PD-L1 ECD-His; recombinant human PD-L1-His protein; not shown: His tag
Procedure: The affinity of the binding of the exemplary anti-PD-L1 antibodies of the present disclosure was determined. Assay was performed according to the protocol recommended by Gator or Gator Plus (Gator Bio Inc.). Briefly, human PD-L1-His (Sino Biological, Cat #10084-H08H) was serially diluted 4-fold, starting at 4 μg/ml. After three times of regeneration in generation buffer (Gator Bio, Cat #120012) and neutralization of HFC probe (Gator Bio, Cat #160003), 1 μg/ml of antibody to be tested in Q buffer (Gator Bio, Cat #120010) was immobilized onto HFC probe. After a baseline step, probe immobilized with antibody was dipped into antigen solutions. The association and dissociation of antigen from antibody was measured on BLI machine Gator. Affinity was calculated using Gator Bio analysis software.
Table 22 below summarizes the binding affinity to human PD-L1 using Gator.

[5] = biological target: T4, cynomolgus PD-L1-His (Sino Biological, Cat. 90251-C08H) (cynomolgus, UniProt Q9NZQ7 19-238 (human entry)); test: ELISA, coated cyno PD-L1-His
T4 construct: Bought protein; also called Cyno PD-L1; Cynomolgus PD-L1 ECD-His; not shown: His tag
Procedure: Briefly, Maxisorp plates (Nunc) were coated with 100 ul/well of 0.5 μg/ml human PD-L1-His (Sino Biological, Cat #10084-H08H) or cynomolgus PD-L1-His (Sino Biological, Cat. 90251-C08H) protein diluted in 1×PBS (GIBCO) overnight at 4° C. Plates were washed three times with 300 μl/well washing buffer (1×PBST, diluted from 20×PBST (Thermo Scientific) with distilled water)) and then blocked with 300 μl/well of blocking buffer (1×PBST/I % BSA) for 2 hours at RT on shaker (100 rpm). Plates were washed and added with 100 μl/well of testing antibodies, which were serial diluted with assay buffer (PBST/1% BSA). The antibodies were incubated at room temperature for 2 hours on plate shaker at 100 rpm. Plates were washed. One hundred microliter of horseradish peroxidase (HRP) conjugated detection antibody was added into each well and incubated at room temperature for 1 hour on plate shaker at 100 rpm. Plates were washed and added with 100 μl/well TMB substrate for color development at room temperature in dark for up to 10 minutes. After addition of 50 μl/well of stop solution (1N H₂SO₄), plates were read at 450 nm on a plate reader (SpectraMax M5).
Anti-HEL isotype control (Biolntron) was used as negative control.

T1 sequence (Q9NZQ7 19-290 limits assumed): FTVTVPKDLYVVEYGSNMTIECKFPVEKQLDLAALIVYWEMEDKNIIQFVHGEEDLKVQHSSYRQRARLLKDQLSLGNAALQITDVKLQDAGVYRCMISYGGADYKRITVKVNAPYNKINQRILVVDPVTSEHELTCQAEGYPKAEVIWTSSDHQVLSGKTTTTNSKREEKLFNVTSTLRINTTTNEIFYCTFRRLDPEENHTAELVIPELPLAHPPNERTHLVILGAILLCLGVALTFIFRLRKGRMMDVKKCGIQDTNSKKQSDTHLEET
T3 sequence (Q9NZQ7 19-238): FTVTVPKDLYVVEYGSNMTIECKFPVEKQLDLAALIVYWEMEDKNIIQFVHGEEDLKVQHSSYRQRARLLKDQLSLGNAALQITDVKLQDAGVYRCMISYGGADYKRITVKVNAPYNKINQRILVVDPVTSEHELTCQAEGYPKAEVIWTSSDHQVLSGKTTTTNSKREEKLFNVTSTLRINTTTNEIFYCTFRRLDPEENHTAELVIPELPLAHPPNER
T4 sequence (Q9NZQ7 other isoform, or with tags, fused parts or gaps C08H C08H limits assumed): as the sequence (Q9NZQ7 19-238) above, with A33T, A34S, S62N, R68Q, Q82R, F173L, T185A, T192I, H215L counted along it

B1: 57B10 (antibody, human IgG1, V domains shown)
VH: QEQLEESGGGLVQPEGSLTLTCTASGFSFSDDYYMSWVRQAPGKGLEWIASIYTGSLNTYYATWAKGRFTISLTSSTTVTLQMTSLTAADTATYFCARRNKNADWGHFDLWGPGTLVTVSS
VL: YDMTQTPASVEVAVGGTVTIKCQASQSISTALAWYQQKPGQPPKLLIYAASTLASGVPSRFRGSGSGTDFTLTISDLECADAATYYCQQGWTVSSLDNAFGGGTEVVAM
IC50 (nM), Promega PD-1/PD-L1 blockade reporter assay [1]: 0.47 nM
Internalization (%), FACS, 0.25 µg/ml, 2 h [2]: 19.3%
Internalization (%), FACS, 0.25 µg/ml, 4 h [2]: 16.5%
Internalization (%), FACS, 0.5 µg/ml, 2 h [2]: 11.1%
Internalization (%), FACS, 0.5 µg/ml, 4 h [2]: 21.7%
Internalization (%), FACS, 1 µg/ml, 2 h [2]: 12.7%
Internalization (%), FACS, 1 µg/ml, 4 h [2]: 15.6%
Internalization (%), FACS, 2 µg/ml, 2 h [2]: 19.2%
Internalization (%), FACS, 2 µg/ml, 4 h [2]: 22.1%
binding result [3]: no binding
Kd [4]: 0.09 nM
koff [4]: 7.7e-05 s⁻¹
kon [4]: 810000 M⁻¹ s⁻¹
EC50 [5]: 0.0071 nM

B2: 62E6 (antibody, human IgG1, V domains shown)
VH: B1 VH with G10D, Q13K, D31G, T59I, W105Y
VL: B1 VL with S29N, T30D, A31R, G40R, A49G, R62K, D69E, A80V, M109K
IC50 (nM), Promega PD-1/PD-L1 blockade reporter assay [1]: 0.41 nM
Internalization (%), FACS, 0.25 µg/ml, 2 h [2]: 22.3%
Internalization (%), FACS, 0.25 µg/ml, 4 h [2]: 21%
Internalization (%), FACS, 0.5 µg/ml, 2 h [2]: 12.2%
Internalization (%), FACS, 0.5 µg/ml, 4 h [2]: 24%
Internalization (%), FACS, 1 µg/ml, 2 h [2]: 16.4%
Internalization (%), FACS, 1 µg/ml, 4 h [2]: 17.7%
Internalization (%), FACS, 2 µg/ml, 2 h [2]: 16.1%
Internalization (%), FACS, 2 µg/ml, 4 h [2]: 17.9%
binding result [3]: no binding
Kd [4]: 0.43 nM
koff [4]: 0.000342 s⁻¹
kon [4]: 788000 M⁻¹ s⁻¹
EC50 [5]: 0.0188 nM

B4: 56E5 (antibody, human IgG1, V domains shown)
VH: B1 VH with D31G, N100H, W105Y
VL: B1 VL with A8G, S29N, T30D, A31R, K38T, A49G, R62K, D69E, M109K
IC50 (nM), Promega PD-1/PD-L1 blockade reporter assay [1]: 0.41 nM
Internalization (%), FACS, 0.25 µg/ml, 2 h [2]: 22.9%
Internalization (%), FACS, 0.25 µg/ml, 4 h [2]: 22.1%
Internalization (%), FACS, 0.5 µg/ml, 2 h [2]: 20.7%
Internalization (%), FACS, 0.5 µg/ml, 4 h [2]: 19.8%
Internalization (%), FACS, 1 µg/ml, 2 h [2]: 23.8%
Internalization (%), FACS, 1 µg/ml, 4 h [2]: 20.6%
Internalization (%), FACS, 2 µg/ml, 2 h [2]: 24.7%
Internalization (%), FACS, 2 µg/ml, 4 h [2]: 26.5%
binding result [3]: no binding
Kd [4]: 0.75 nM
koff [4]: 0.00056 s⁻¹
kon [4]: 748000 M⁻¹ s⁻¹
EC50 [5]: 0.0078 nM

More lines, in order of falling Kd [4], values ahead:

Internalization (%), FACS, 0.25 µg/ml, 2 h [2]: 17.9%
Internalization (%), FACS, 0.25 µg/ml, 4 h [2]: 21.3%
Internalization (%), FACS, 0.5 µg/ml, 2 h [2]: 19.7%
Internalization (%), FACS, 0.5 µg/ml, 4 h [2]: 14.7%
Internalization (%), FACS, 1 µg/ml, 2 h [2]: 16.7%
Internalization (%), FACS, 1 µg/ml, 4 h [2]: 16.8%
Internalization (%), FACS, 2 µg/ml, 2 h [2]: 14.5%
Internalization (%), FACS, 2 µg/ml, 4 h [2]: 15.4%
binding result [3]: no binding
Kd [4]: 0.31 nM
koff [4]: 0.000113 s⁻¹
kon [4]: 371000 M⁻¹ s⁻¹
EC50 [5]: 0.0138 nM
B3: 57F11 (antibody, human IgG1, V domains shown)
VH: B1 VH with Q3H, S17A, D31G, L73I, T74A, M83V, N100T, A103G, W105Y, H107Y
VL: B1 VL with S29N, T30D, A31R, R62K, D69E, D97E, M109K

Internalization (%), FACS, 0.25 µg/ml, 2 h [2]: 22%
Internalization (%), FACS, 0.25 µg/ml, 4 h [2]: 15.6%
Internalization (%), FACS, 0.5 µg/ml, 2 h [2]: 17.8%
Internalization (%), FACS, 0.5 µg/ml, 4 h [2]: 23%
Internalization (%), FACS, 1 µg/ml, 2 h [2]: 19.5%
Internalization (%), FACS, 1 µg/ml, 4 h [2]: 15.7%
Internalization (%), FACS, 2 µg/ml, 2 h [2]: 22.5%
Internalization (%), FACS, 2 µg/ml, 4 h [2]: 21.7%
binding result [3]: no binding
Kd [4]: 0.12 nM
koff [4]: 9.39e-05 s⁻¹
kon [4]: 804000 M⁻¹ s⁻¹
EC50 [5]: 0.0121 nM
B5: 73C8 (antibody, human IgG1, V domains shown)
VH: B1 VH with A24V, D31G, I49V, W105Y
VL: B1 VL with S29N, T30D, A31R
